Results as given in the supplement of paper PMC9233669.
This sample holds only a part of the variants without activity.

Assays:
[1] = test system: biotinyl-Phe-oxazolone; assay: self-aminoacylation, catalytic enhancement (BFO) (fold over background); higher = more active; k-Seq, kA / k0A0; sequences stand for … in GGGAAUGGAUCCACAUCUACGAAUUC…UUCACUGCAGACUUGACGAAGCUG
Outline: (§1)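 Each biotinyl-aminoacyl-oxazolone, at 2–1250 μM, was incubated with mutagenized RNA pools (0.43 μM) carrying a 21-nt variable region. The 50 μL reactions contained HEPES/NaCl/KCl/MgCl2/CaCl2 buffer with 5% acetonitrile at pH 6.9–7.0 and ran for 90 minutes at room temperature. After streptavidin capture, RNA was measured by qPCR in triplicate and by Illumina sequencing, and catalytic enhancement was calculated as median kA over the uncatalyzed rate from a pseudo-first-order fit of per-sequence fraction reacted.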

[2] = test system: biotinyl-Ile-oxazolone; assay: self-aminoacylation, catalytic enhancement (BIO) (fold over background); higher = more active; k-Seq, kA / k0A0; sequences stand for … in GGGAAUGGAUCCACAUCUACGAAUUC…UUCACUGCAGACUUGACGAAGCUG
Outline: as §1

[3] = test system: biotinyl-Met-oxazolone; assay: self-aminoacylation, catalytic enhancement (BMO) (fold over background); higher = more active; k-Seq, kA / k0A0; sequences stand for … in GGGAAUGGAUCCACAUCUACGAAUUC…UUCACUGCAGACUUGACGAAGCUG
Outline: as §1

[4] = test system: biotinyl-Val-oxazolone; assay: self-aminoacylation, catalytic enhancement (BVO) (fold over background); higher = more active; k-Seq, kA / k0A0; sequences stand for … in GGGAAUGGAUCCACAUCUACGAAUUC…UUCACUGCAGACUUGACGAAGCUG
Outline: as §1

[5] = test system: biotinyl-Leu-oxazolone; assay: self-aminoacylation, catalytic enhancement (BLO) (fold over background); higher = more active; k-Seq, kA / k0A0; sequences stand for … in GGGAAUGGAUCCACAUCUACGAAUUC…UUCACUGCAGACUUGACGAAGCUG
Outline: as §1

[6] = test system: biotinyl-Trp-oxazolone; assay: self-aminoacylation, catalytic enhancement (BWO) (fold over background); higher = more active; k-Seq, kA / k0A0; sequences stand for … in GGGAAUGGAUCCACAUCUACGAAUUC…UUCACUGCAGACUUGACGAAGCUG
Outline: as §1

Sequence	self-aminoacylation [1]	self-aminoacylation [2]	self-aminoacylation [3]	self-aminoacylation [4]	self-aminoacylation [5]	self-aminoacylation [6]
AUUACCCAGGUUAUCGAGUGA [Fam2.1 aminoacylation ribozyme variant]	50.4	3.94	9.6	4.25	9.68	11.6
AACUUUACUAAUAGUCGCAAG [Fam3.1 aminoacylation ribozyme variant]	6.76	2.07	2.23	1.86	2.26	2.92
AUUCACGUAGGUCAUCGGGUG [Fam2.2 aminoacylation ribozyme variant]	53.2	4.22	6.62	5.15	7.22	6.49
AUUAUCCUGGUCAUCGGGUGA [Fam2.1 aminoacylation ribozyme variant]	69.6	7.1	14.1	7.7	17.1	17.4
AAUUUUUCUAAUAGUCGCAAG [Fam3.1 aminoacylation ribozyme variant]	3.68	1.88	1.7	1.75	1.75	1.54
AUUCACGGAGGUCAUCGGGUG [Fam2.2 aminoacylation ribozyme variant]	65.1	4.28	7.36	6.35	9.33	7.23
CCACACUUCAAGCAGUAGGUC [Fam1B.1 aminoacylation ribozyme variant]	0.807	0.633	0.425	0.815	0.51	0.401
CUACUUCAAAUAAUCAGUCUG [Fam1A.1 aminoacylation ribozyme variant]	8.19	0.956	0.717	0.935	0.891	3.71
ACUACCCUGGUCAGCGAGUGA [Fam2.1 aminoacylation ribozyme variant]	38.3	4.51	6.39	4.6	6.39	6.58
AUUACCCUGGUCAUGGAGUGC [Fam2.1 aminoacylation ribozyme variant]	0.89	1.05	0.858	1.17	1.24	0.556
AUUACUCUAGUCAUCGAGUGA [Fam2.1 aminoacylation ribozyme variant]	19.1	2.95	5.28	2.9	5.41	6.32
AUUAGCCAGGUCAUCGAGUGA [Fam2.1 aminoacylation ribozyme variant]	19.1	3.72	5.35	3.8	5.48	6.91
CCACACUUCAAGCAAACGAUC [Fam1B.1 aminoacylation ribozyme variant]	0.772	0.513	0.44	0.589	0.422	0.585
CCACACUUCAAUCAAUCGUUC [Fam1B.1 aminoacylation ribozyme variant]	1.04	0.622	0.423	0.607	0.506	0.469
CUACUACAAACAAUCGGUCUC [Fam1A.1 aminoacylation ribozyme variant]	1.05	0.647	0.53	0.59	0.418	0.673
CUACUUUAAACAAUCGGUCUU [Fam1A.1 aminoacylation ribozyme variant]	0.805	0.888	1.09	0.885	0.738	0.6
AAGUUUGAUAAUAGUCGGAAG [Fam3.1 aminoacylation ribozyme variant]	0.778	0.514	0.556	0.572	0.536	0.436
AAGUUUGCUCAUACUCGCAAG [Fam3.1 aminoacylation ribozyme variant]	0.813	0.777	0.742	0.752	0.715	0.748
AUUCACCUAGGUGAUCGGUUG [Fam2.2 aminoacylation ribozyme variant]	3.17	0.875	0.928	0.921	0.93	1.03
AAGUUUGCUAAUUGUUGCAAG [Fam3.1 aminoacylation ribozyme variant]	1.11	0.929	0.901	0.775	0.945	0.926
GUUCACCUAGGUCACCGGGUG [Fam2.2 aminoacylation ribozyme variant]	28.5	4.06	3.6	3.55	5.53	6.73
CUACUUCAACCAAUCGGUCCG [Fam1A.1 aminoacylation ribozyme variant]	6.1	0.867	1.26	0.799	1.22	5.57
AAGUUUACUAAUAUUCGCAAG [Fam3.1 aminoacylation ribozyme variant]	2.42	1.67	1.31	1.66	1.44	2.23
AUUACACUGGACAUCGAGUGA [Fam2.1 aminoacylation ribozyme variant]	14.9	3.23	5.83	2.87	6.11	6.45
AUCACCGUGGUCAUCGAGUGA [Fam2.1 aminoacylation ribozyme variant]	52.5	3.99	7.05	4.01	6.15	7.75
